The record followed here is the Immune Epitope Database (IEDB).

Holding throughout (conditions): source organism: Homo sapiens
Assay [1] deals with HLA-A*03:01. The assay is described as follows: IEDB peptide-MHC binding, purified MHC/competitive/radioactivity; ≥ and ≤ were set here for values at or beyond the usual limits of such assays.
Assay [2] has as its target HLA-A*11:01. Described as above.
Another assay concerns the target HLA-A*02:01. The assay is described as follows: IEDB peptide-MHC binding, purified MHC/competitive/radioactivity; filed as Kd, often an IC50 or EC50 that approximates it; ≥ and ≤ were set here for values at or beyond the usual limits of such assays.
Another assay addresses HLA-B*08:01. The description is as above.
The target in another assay is HLA-B*07:02. The description is as above.
The target in assay [3] is HLA-B*27:01. The assay is described as follows: IEDB peptide-MHC binding, purified MHC/competitive/radioactivity; ≥ and ≤ were set here for values at or beyond the usual limits of such assays.
Assay [4] has as its target HLA-A*11:01. The assay is described as follows: IEDB peptide-MHC binding, purified MHC/competitive/radioactivity; filed as Kd, often an IC50 or EC50 that approximates it; ≥ and ≤ were set here for values at or beyond the usual limits of such assays.
In the next assay the target is HLA-A*24:02. Described as above.
Assay [5] concerns the target HLA-B*27:01. Described as above.
For assay [6], the target named is HLA-A*03:01. Described as above.

For orientation: IC50 means the point on the concentration scale where inhibition reaches its midpoint. On to ATGFKQSSK, for which the IC50 was determined as 0.3 µM with HLA-A*03:01 [1] and 0.097 µM in the assay with HLA-A*11:01 [2].

By Kd is commonly meant the equilibrium constant for the complex coming apart. ATGFKQSSKAL: the Kd with HLA-A*02:01 is at least 30 µM; in the assay with HLA-B*08:01, 3.6 µM. On to CITQGKAI, for which the Kd with HLA-A*02:01 is at least 50 µM. For DLSSCITQGKA, in the assay with HLA-A*02:01, the dissociation constant (Kd) was at least 50 µM.

Turning to EALQRPVASDF, the Kd with HLA-B*07:02 is at least 30 µM.

For the sequence GFKQSSKAL, the IC50 in the assay with HLA-B*27:01 [3] is 0.19 µM. For the sequence GFKQSSKALQR, the IC50 with HLA-A*03:01 [1] came to 0.81 µM. For the same sequence, in the assay with HLA-A*11:01 [4], the Kd turned out to be 2.15 µM. On the same counts, the results for GKQSSKALQR are 0.545 µM and at least 5 µM. In the case of HSATGFKQSSK, the values for the IC50 with HLA-A*03:01 [1] and with HLA-A*11:01 [2] were 0.4 µM and 0.125 µM, respectively.

With HVASGAGEAAI, in the assay with HLA-A*02:01, the Kd is at least 50 µM.

For INKEEALQR, the Kd in the assay with HLA-A*11:01 [4] is at least 30 µM. Turning to KALQRPVSDF, the Kd with HLA-A*24:02 was at least 30 µM.

Take KQSSKALQR: the results for the IC50 with HLA-A*03:01 [1] and in the assay with HLA-A*11:01 [2] were 0.043 µM and 0.273 µM, respectively. In the case of LTINKEEAL, the results for the Kd with HLA-A*02:01 and with HLA-B*08:01 were at least 30 µM and 1.9 µM, respectively. NKEEALQR: the Kd with HLA-B*27:01 [5] is at least 30 µM. In the case of PLTINKEEAL, in the assay with HLA-A*02:01, the Kd was at least 30 µM. For QSSKALQR, the Kd with HLA-A*03:01 [6] and in the assay with HLA-A*11:01 [4] was at least 30 µM throughout.

As to SATGFKQSSK, the values for the Kd in the assay with HLA-A*03:01 [6] and in the assay with HLA-A*11:01 [4] were 5.45 µM and 3.53 µM, respectively.

TGFKQSSK: the Kd in the assay with HLA-A*03:01 [6] and with HLA-A*11:01 [4] was at least 30 µM in each case. For TINKEEAL, the dissociation constant Kd in the assay with HLA-A*02:01 is at least 30 µM. For TINKEEALQR, the Kd with HLA-A*03:01 [6] and with HLA-A*11:01 [4] was at least 30 µM each time. Turning to VASGAGEAAI, the Kd with HLA-A*02:01 is at least 50 µM.
